{"source": "patent US20180051287", "about": "“COMPOSITIONS AND METHODS FOR INHIBITING FACTOR D” (Vitrisa Therapeutics, Inc., published 2018)", "key": {"complement factor D (fD) [1]": {"molecular_target": "T1, complement factor D (fD) (Homo sapiens, UniProt P00746 SEQ:1-228)", "T1 sequence (P00746 26-253)": "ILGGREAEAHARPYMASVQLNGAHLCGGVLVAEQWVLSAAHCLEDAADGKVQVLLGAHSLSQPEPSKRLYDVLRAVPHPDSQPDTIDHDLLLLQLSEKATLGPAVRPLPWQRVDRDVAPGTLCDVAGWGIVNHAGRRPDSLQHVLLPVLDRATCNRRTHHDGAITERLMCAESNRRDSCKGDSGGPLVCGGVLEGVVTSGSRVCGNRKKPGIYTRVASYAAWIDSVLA", "assay": "FP filter; not above naive library (3.6%); 100 nM DNA, 5 uM fD", "details": "tags: 6xHis, label: end-labeled", "procedure": "(§1) Specificity of binding was assessed by measuring binding to casein. In all binding reactions, the oligonucleotide concentration was 100 nM, the fD concentration 5 μM and the casein concentration 20 μM."}, "complement factor D (fD) [2]": {"molecular_target": "T1, complement factor D (fD)", "assay": "FP filter; double-filter nitrocellulose binding; 100 nM DNA, 5 uM fD", "details": "tags: 6xHis; label: end-labeled; potential G4", "procedure": "as §1"}, "complement factor D (fD) [3]": {"molecular_target": "T1, complement factor D (fD)", "assay": "inhibition; alternative-pathway hemolysis of rabbit RBC, C1q-depleted human serum, room temperature", "details": "protein: extract; tags: endogenous fD in C1q-depleted human serum; label: Dy650-N30S.R.OMe 2'-OMe oligo hybridized to 3' constant region (flow assays)", "procedure": "Briefly, citrated rabbit blood was centrifuged at 500×g for 5 minutes at room temperature. The top plasma fraction was removed and the volume was replaced with 1× Veronal buffer containing 0.1% gelatin (prepared from 5× Veronal buffer, Lonza #12-624E and 2% gelatin solution, Sigma-Aldrich, G1393). The red blood cells were washed two more times. The washed rabbit red blood cells were diluted in 1× Veronal buffer to a concentration of 2×10⁹ cells/mL (RBCs).\nIn V-bottom 96-well plates the following reagents were added to a final volume of […] of 1× Veronal buffer with 0.1% gelatin, 100 μL aptamer, 30 μL of C1q-depleted human serum and 20 μL RBCs. This mixture was incubated for 25 minutes at room temperature, then the reaction was stopped by the addition of 5 μL of 500 mM EDTA. The plate was centrifuged for 5 minutes at 500×g at room temperature, then 100 μL of supernatant was removed and the extent of RBC lysis was determined by measuring absorbance at 405 nm.\nC1-C3 identified in Example 1, a non-specific control oligo (C8), and one anti-fD Fab antibody fragment as described in Example 1 (AFD) were incubated with C1q-depleted human serum to allow binding to fD present in the serum, then assayed for the ability to inhibit fD-dependent lysis of rabbit red blood cells (FIG. 11). […] IC₅₀ values for C1-C3, C8 and AFD are depicted in Table 14."}}, "data": [{"binder": "Aptamer 12 (rank 9) (ssDNA) DNA: GTGACGACTGACATATCTGCAAAAGTTAGATTGACATGGTATGCACCGTCTGAGGTTGGTCGTAGTTGAGTCTGAGTGCT", "values": [{"measurement": "binding signal", "setting": "complement factor D (fD) [1]; non-G4", "value": 1.6, "unit": "% bound"}]}, {"binder": "Aptamer 8 (rank 5) (ssDNA) DNA: GTGACGACTGACATATCTGCTATTTTGGGGCCTGGGTGTTGGGGATTGGGGACTATGTGTCGTAGTTGAGTCTGAGTGCT", "values": [{"measurement": "binding signal", "setting": "complement factor D (fD) [2]", "value": 60.3, "unit": "% bound"}]}, {"binder": "Aptamer 27 (rank 24) (ssDNA) DNA: GTGACGACTGACATATCTGCGGGCGTCTGAGCGCATGGATGACCCACCGACAGATTGCGGCGTAGTTGAGTCTGAGTGCT", "values": [{"measurement": "binding signal", "setting": "complement factor D (fD) [1]; non-G4", "value": 0.7, "unit": "% bound"}]}, {"binder": "C1 (Aptamer 1) (ssRNA, 2'-F G; 2'-OMe A, C, U) RNA: GGGAGUGUGUACGAGGCAUUAGGCCGCCACCCAAACUGCAGUCCUCGUAAGUCUGCCUGGCGGCUUUGAUACUUGAUCGCCCUAGAAGC", "values": [{"measurement": "IC50", "setting": "complement factor D (fD) [3]", "value": 5.1, "unit": "nM"}]}, {"binder": "C3 (Aptamer 3) (ssRNA, 2'-F G; 2'-OMe A, C, U) RNA: GGGAGUGUGUACGAGGCAUUAGGCCGCCACCUCGUUUGAUUGCGGUUGUUCGGCCGCGGGCGGCUUUGAUACUUGAUCGCCCUAGAAGC", "values": [{"measurement": "IC50", "setting": "complement factor D (fD) [3]", "value": 7, "unit": "nM"}]}, {"binder": "Aptamer 5 (rank 2) (ssDNA) DNA: GTGACGACTGACATATCTGCGTTTGGGGTTGGGGCCTGGGAGTTTGGGGAGCAGAAAGGACGTAGTTGAGTCTGAGTGCT", "values": [{"measurement": "binding signal", "setting": "complement factor D (fD) [2]", "value": 63, "unit": "% bound"}]}, {"binder": "Aptamer 15 (rank 12) (ssDNA) DNA: GTGACGACTGACATATCTGCTGCTTCCAGCGGTCATGATATGCACTGTCTGAAGCTCGGTCGTAGTTGAGTCTGAGTGCT", "values": [{"measurement": "binding signal", "setting": "complement factor D (fD) [1]; non-G4", "value": 0.4, "unit": "% bound"}]}, {"binder": "Aptamer 10 (rank 7) (ssDNA) DNA: GTGACGACTGACATATCTGCCCTATAGGGGTGTGGGCGAGGGGTGGGTGGTAGGGCGGCTCGTAGTTGAGTCTGAGTGCT", "values": [{"measurement": "binding signal", "setting": "complement factor D (fD) [1]; potential G4", "value": 1.9, "unit": "% bound"}]}, {"binder": "Aptamer 7 (rank 4) (ssDNA) DNA: GTGACGACTGACATATCTGCGGCGGTTGGGGTCGAAGGGCGAGGGGTGGGAGGTCGCCGTAGTTGAGTCTGAGTGCT", "values": [{"measurement": "binding signal", "setting": "complement factor D (fD) [1]; potential G4", "value": 3.2, "unit": "% bound"}]}, {"binder": "Aptamer 4 (rank 1) (ssDNA) DNA: GTGACGACTGACATATCTGCTCCGAGGTTATTGGGGTTGGGGCCTGGGCGATTGGGGCCTCGTAGTTGAGTCTGAGTGCT", "values": [{"measurement": "binding signal", "setting": "complement factor D (fD) [2]", "value": 58.3, "unit": "% bound"}]}, {"binder": "C2 (Aptamer 2) (ssRNA, 2'-F G; 2'-OMe A, C, U) RNA: GGGAGUGUGUACGAGGCAUUAGUCCGCCGAAGUCUUUUGGCUCGGUUUUUUCAAGGUCGGCGGCUUUGAUACUUGAUCGCCCUAGAAGC", "values": [{"measurement": "IC50", "setting": "complement factor D (fD) [3]", "value": 3.3, "unit": "nM"}]}]}
